From US20160136234A1

Legend:
Experiment in all cases: cell-based or functional assay
BrSK1 (h) (human) = target: T1, BrSK1 (h) (human) (UniProt Q8TDC3)
T1 sequence (looked up): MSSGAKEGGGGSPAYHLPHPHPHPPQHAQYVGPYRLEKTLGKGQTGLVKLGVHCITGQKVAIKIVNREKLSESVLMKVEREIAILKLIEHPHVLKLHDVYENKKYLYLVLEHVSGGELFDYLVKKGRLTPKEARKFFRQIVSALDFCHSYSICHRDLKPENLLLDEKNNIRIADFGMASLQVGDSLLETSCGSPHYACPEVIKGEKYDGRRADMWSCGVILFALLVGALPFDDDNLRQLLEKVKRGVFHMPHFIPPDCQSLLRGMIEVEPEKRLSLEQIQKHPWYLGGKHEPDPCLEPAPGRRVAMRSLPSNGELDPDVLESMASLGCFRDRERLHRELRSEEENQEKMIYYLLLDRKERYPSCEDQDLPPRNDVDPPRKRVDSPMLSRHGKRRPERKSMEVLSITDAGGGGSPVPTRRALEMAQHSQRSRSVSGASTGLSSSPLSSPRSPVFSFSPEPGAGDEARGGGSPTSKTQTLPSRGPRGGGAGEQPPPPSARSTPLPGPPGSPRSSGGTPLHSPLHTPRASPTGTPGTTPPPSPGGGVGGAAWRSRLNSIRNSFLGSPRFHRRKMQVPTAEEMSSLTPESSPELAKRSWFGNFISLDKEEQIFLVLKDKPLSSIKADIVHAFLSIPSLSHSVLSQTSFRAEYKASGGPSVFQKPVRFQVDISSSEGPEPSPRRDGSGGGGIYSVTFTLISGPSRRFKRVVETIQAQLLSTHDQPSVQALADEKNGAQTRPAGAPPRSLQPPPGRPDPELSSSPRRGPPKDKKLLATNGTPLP

BrSK2 (h) (human) = target: T2, BrSK2 (h) (human) (UniProt Q8IWQ3)
T2 sequence (looked up): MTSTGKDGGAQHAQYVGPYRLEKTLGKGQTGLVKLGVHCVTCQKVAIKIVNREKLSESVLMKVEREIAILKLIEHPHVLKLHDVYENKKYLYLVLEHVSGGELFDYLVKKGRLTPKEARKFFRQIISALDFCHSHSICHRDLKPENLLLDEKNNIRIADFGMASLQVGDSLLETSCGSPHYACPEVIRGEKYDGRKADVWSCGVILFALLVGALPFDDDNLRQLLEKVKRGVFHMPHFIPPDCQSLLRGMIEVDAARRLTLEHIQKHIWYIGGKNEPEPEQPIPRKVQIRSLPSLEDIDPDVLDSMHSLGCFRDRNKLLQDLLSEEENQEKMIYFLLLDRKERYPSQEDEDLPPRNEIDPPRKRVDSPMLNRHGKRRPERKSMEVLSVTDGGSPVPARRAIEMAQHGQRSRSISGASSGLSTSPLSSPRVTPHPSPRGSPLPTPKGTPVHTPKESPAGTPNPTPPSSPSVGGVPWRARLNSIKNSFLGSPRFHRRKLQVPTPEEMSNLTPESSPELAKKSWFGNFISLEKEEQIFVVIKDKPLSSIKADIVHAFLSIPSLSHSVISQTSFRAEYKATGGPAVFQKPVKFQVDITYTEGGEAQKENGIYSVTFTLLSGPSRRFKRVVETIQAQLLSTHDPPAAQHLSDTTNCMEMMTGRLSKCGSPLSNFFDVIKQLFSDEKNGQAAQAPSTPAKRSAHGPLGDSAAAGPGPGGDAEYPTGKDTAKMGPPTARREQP

CHK2 (h) (human) = CHK2 (h) (human) (UniProt O96017)
CHK2 (h) (human), sequence (O96017 5-543 limits assumed): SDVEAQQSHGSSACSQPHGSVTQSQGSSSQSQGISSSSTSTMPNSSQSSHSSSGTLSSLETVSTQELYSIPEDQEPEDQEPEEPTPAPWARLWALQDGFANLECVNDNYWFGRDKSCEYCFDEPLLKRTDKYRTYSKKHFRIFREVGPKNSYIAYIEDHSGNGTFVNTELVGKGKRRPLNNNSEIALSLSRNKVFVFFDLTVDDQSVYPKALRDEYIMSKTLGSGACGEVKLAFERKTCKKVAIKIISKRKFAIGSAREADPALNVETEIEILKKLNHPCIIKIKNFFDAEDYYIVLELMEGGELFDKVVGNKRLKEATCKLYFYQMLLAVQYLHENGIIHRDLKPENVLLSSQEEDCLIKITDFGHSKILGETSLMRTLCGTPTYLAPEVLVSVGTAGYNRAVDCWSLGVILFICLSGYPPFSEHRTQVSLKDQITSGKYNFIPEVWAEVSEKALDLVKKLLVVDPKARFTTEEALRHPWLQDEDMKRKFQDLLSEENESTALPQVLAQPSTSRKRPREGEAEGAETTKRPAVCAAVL

Fms(Y969C) (h) (human) = target: T3, Fms(Y969C) (h) (human) (UniProt P07333)
T3 sequence (looked up): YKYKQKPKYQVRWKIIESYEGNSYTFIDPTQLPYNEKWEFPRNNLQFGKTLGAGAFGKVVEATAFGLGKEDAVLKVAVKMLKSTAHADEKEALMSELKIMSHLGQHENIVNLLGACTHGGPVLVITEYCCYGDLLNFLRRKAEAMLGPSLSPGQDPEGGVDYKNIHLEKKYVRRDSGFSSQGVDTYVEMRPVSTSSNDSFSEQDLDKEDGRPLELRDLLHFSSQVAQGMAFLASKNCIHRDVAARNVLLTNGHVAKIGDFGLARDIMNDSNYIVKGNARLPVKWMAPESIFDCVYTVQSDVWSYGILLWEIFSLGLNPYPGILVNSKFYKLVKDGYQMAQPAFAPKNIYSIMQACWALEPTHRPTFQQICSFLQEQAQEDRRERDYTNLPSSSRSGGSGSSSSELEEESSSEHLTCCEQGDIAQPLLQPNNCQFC

PRAK (h) (human) = PRAK (h) (human) (UniProt Q8IW41)
PRAK (h) (human), sequence (Q8IW41 whole entry): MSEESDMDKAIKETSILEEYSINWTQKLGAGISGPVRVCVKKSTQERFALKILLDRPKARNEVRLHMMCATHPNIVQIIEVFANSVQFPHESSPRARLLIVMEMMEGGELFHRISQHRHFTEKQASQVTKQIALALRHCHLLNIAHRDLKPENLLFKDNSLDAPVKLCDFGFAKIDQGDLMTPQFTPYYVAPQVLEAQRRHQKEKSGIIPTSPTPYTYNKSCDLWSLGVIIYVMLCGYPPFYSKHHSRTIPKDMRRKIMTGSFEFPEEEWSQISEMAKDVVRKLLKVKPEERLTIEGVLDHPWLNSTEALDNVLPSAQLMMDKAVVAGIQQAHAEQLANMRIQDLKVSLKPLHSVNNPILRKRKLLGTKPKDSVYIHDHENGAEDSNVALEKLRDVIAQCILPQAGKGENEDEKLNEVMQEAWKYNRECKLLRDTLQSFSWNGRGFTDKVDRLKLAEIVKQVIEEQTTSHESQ

Ret(V804M) (h) (human) = target: T4, Ret(V804M) (h) (human) (UniProt P07949)
T4 sequence (looked up): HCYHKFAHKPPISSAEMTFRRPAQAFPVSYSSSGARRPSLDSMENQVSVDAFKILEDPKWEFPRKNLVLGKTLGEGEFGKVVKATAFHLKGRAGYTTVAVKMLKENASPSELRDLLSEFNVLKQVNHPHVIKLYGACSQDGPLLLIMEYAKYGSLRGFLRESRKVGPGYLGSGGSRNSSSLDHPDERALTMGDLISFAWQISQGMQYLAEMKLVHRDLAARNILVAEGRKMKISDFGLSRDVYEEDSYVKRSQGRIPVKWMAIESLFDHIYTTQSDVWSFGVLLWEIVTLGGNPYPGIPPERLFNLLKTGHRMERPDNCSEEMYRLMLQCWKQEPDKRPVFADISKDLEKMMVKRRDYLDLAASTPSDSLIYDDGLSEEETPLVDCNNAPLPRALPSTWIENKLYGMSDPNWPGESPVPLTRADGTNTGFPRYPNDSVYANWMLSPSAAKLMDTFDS

SGK3 (h) (human) = target: T5, SGK3 (h) (human) (UniProt Q96BR1)
T5 sequence (looked up): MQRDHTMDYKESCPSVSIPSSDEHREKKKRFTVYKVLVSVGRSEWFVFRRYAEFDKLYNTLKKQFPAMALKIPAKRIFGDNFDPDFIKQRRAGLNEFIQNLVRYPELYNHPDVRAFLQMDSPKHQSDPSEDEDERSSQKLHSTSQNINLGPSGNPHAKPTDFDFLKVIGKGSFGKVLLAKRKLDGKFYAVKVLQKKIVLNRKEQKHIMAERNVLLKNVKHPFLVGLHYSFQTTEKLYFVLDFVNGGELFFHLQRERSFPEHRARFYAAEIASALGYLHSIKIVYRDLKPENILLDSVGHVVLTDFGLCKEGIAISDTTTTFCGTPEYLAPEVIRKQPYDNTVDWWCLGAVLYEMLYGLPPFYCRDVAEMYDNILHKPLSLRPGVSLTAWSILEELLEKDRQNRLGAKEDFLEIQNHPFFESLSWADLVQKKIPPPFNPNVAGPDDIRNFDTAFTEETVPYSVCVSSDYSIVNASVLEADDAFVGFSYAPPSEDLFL

% activity at 100 µM (BrSK1 (h) (human)): 67%
% activity at 100 µM (BrSK2 (h) (human)): 83%
% activity at 100 µM (CHK2 (h) (human)): 66%
% activity at 100 µM (Fms(Y969C) (h) (human)): 72%
% activity at 100 µM (PRAK (h) (human)): 128%
% activity at 100 µM (Ret(V804M) (h) (human)): 95%
% activity at 100 µM (SGK3 (h) (human)): 10%
Substance: MMI-0300 (peptide)
